Values joined by “and” are separate entries in the source; they are usually repeats but may differ in a detail not shown here. Equal values may be shown once. One block for each binder: values may come before it.
How the values were obtained:
hIL13-Fc [1] = biological target: T1, hIL13-Fc (human, UniProt P35225 25-146); experiment: competition ELISA; soluble IL-13Rα2 as positive control against coated IL13Rα2
T1 construct: not shown: Fc part and any linker not described

cyno TSLP-Fc [2] = biological target: T2, cyno TSLP-Fc (cynomolgus monkey, UniProt A0A7N9CAT7 29-159); experiment: SPR (BIAcore T100), Fc fusion captured by anti-huIgG
T2 construct: also called cyno TSLP-hFc; not shown: human Fc part and any linker not described

hTSLP-Fc [3] = biological target: T3, hTSLP-Fc (human, UniProt Q969D9 29-159); experiment: as above
T3 construct: also called hTSLP-hFc; hTLSP-Fc; not shown: human Fc part and any linker not described

human TSLP [4] = biological target: T4, human TSLP (human, UniProt Q969D9 29-159); experiment: AlphaScreen, purified ISVD; hTSLP:hTSLPR:hIL7Rα ternary complex
T4 construct: also called hTSLP; hTSP

hTSLP-Fc [5] = biological target: T3, hTSLP-Fc; experiment: SPR, hTSLP-hFc (same value as Table 10)
cyno TSLP-Fc [6] = biological target: T2, cyno TSLP-Fc; experiment: SPR (ProteOn XPR36), periplasmic extract over immobilised Fc fusion
hTSLP-Fc [7] = biological target: T3, hTSLP-Fc; experiment: as above
cyno TSLP-Fc [8] = biological target: T2, cyno TSLP-Fc; experiment: SPR, cyno TSLP-hFc (same value as Table 10)
human TSLP [9] = biological target: T4, human TSLP; experiment: AlphaScreen, purified ISVD; hTSLP to hTSLPR
cyno TSLP [10] = biological target: T5, cyno TSLP (cynomolgus monkey, UniProt A0A7N9CAT7 29-159); experiment: SPR, cyno TSLP
T5 construct: also called cynomolgus monkey TSLP

human TSLP [11] = biological target: T4, human TSLP; experiment: SPR, hTSLP
human IL-13 [12] = biological target: T6, human IL-13 (human, UniProt P35225 35-146, limits assumed); experiment: cell-based or functional assay
cyno IL-13 [13] = biological target: T7, cyno IL-13 (cynomolgus monkey, UniProt Q0PW92 21-132); experiment: cell-based or functional assay
human IL-13 [14] = biological target: T6, human IL-13; experiment: cell-based or functional assay; remark: listed apart in the source
cyno IL-13 [15] = biological target: T7, cyno IL-13; experiment: cell-based or functional assay; remark: listed apart in the source
rhesus IL-13 [16] = biological target: T8, rhesus IL-13 (rhesus monkey, UniProt Q864V6 19-132, limits assumed); experiment: cell-based or functional assay
human TSLP [17] = biological target: T4, human TSLP; experiment: cell-based or functional assay
cyno TSLP [18] = biological target: T5, cyno TSLP; experiment: cell-based or functional assay
human TSLP [19] = biological target: T4, human TSLP; experiment: cell-based or functional assay; remark: listed apart in the source
human IL4 = biological target: T9, human IL4 (human, UniProt P05112 25-153); experiment: SPR (ProteOn XPR36), cytokine immobilised by amine coupling
T9 construct: also called human 1L4
T9 sequence (looked up): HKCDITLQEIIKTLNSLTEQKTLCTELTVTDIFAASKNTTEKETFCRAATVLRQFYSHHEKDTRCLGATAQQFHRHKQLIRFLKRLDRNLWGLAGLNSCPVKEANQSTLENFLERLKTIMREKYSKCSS

human IL7 = biological target: T10, human IL7 (human, UniProt P13232 26-177); experiment: as above
T10 construct: also called 1L7
T10 sequence (looked up): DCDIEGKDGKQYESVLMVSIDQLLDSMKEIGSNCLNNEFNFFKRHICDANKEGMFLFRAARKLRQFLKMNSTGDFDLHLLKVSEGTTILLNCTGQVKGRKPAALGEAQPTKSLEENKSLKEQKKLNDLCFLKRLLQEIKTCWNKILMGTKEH

human IL-13 [20] = biological target: T6, human IL-13; experiment: Gyrolab in-solution affinity, 48 h incubation
cyno IL-13 [21] = biological target: T7, cyno IL-13; experiment: Gyrolab in-solution affinity, 48 h incubation
cyno TSLP [22] = biological target: T5, cyno TSLP; experiment: Gyrolab in-solution affinity, 48 h incubation
human TSLP [23] = biological target: T4, human TSLP; experiment: Gyrolab in-solution affinity, 48 h incubation
short form of TSLP = short form of TSLP (UniProt Q969D9-2 1-63, limits assumed); experiment: SPR (ProteOn), short form of TSLP immobilised
human IL-13 [24] = biological target: T6, human IL-13; experiment: Gyrolab in-solution affinity, 72 h incubation
cyno IL-13 [25] = biological target: T7, cyno IL-13; experiment: Gyrolab in-solution affinity, 72 h incubation
cyno TSLP [26] = biological target: T5, cyno TSLP; experiment: Gyrolab in-solution affinity, 72 h incubation
rhesus IL-13 [27] = biological target: T8, rhesus IL-13; experiment: Gyrolab in-solution affinity, 72 h incubation
human TSLP [28] = biological target: T4, human TSLP; experiment: Gyrolab in-solution affinity, 72 h incubation
cyno serum albumin = biological target: T11, cyno serum albumin (cynomolgus monkey); experiment: Gyrolab in-solution affinity, 2 h incubation
T11 construct: also called SA (cynomolgus monkey)

human serum albumin = biological target: T12, human serum albumin (human, UniProt P02768 25-609); experiment: Gyrolab in-solution affinity, 2 h incubation
T12 construct: also called HSA; SA (human)

mouse serum albumin = biological target: T13, mouse serum albumin (mouse, UniProt P07724 25-608); experiment: Gyrolab in-solution affinity, 2 h incubation
T13 construct: also called SA (mouse)

human IL-13 [29] = biological target: T6, human IL-13; experiment: AlphaScreen, purified ISVD; hIL-13:hIL-13Rα1:hIL4Rα ternary complex
human IL-13 [30] = biological target: T6, human IL-13; experiment: cell-based or functional assay; remark: listed apart in the source
hIL13-Fc [31] = biological target: T1, hIL13-Fc; experiment: SPR; * measured on hIL-13-Fc (same values as Table 9)
cyno IL13-Fc [32] = biological target: T14, cyno IL13-Fc (cynomolgus monkey, UniProt Q0PW92 11-132); experiment: SPR (BIAcore T100), cyno IL13-Fc immobilised on CM5; heterogeneous ligand fit, major interaction
T14 construct: not shown: Fc part and any linker not described

hIL13-Fc [33] = biological target: T1, hIL13-Fc; experiment: SPR (BIAcore T100), hIL13-Fc immobilised on CM5; heterogeneous ligand fit, major interaction
hIL13-Fc [34] = biological target: T1, hIL13-Fc; experiment: competition ELISA; hIL13-Fc to coated IL13Rα2
human IL-13 [35] = biological target: T6, human IL-13; experiment: AlphaScreen, purified ISVD; hIL-13 to hIL-13Rα1-hFc
hIL13-Fc [36] = biological target: T1, hIL13-Fc; experiment: SPR (ProteOn XPR36), periplasmic extract over immobilised Fc fusion
cyno IL13-Fc [37] = biological target: T14, cyno IL13-Fc; experiment: as above

- IC50 (hIL13-Fc [1]): 7.9 nM
B1: IL13Rα2 (receptor, UniProt Q14627 27-343, looked up)
chain: DTEIKVNPPQDFEIVDPGYLGYLYLQWQPPLSLDHFKECTVEYELKYRNIGSETWKTIITKNLHYKDGFDLNKGIEAKIHTLLPWQCTNGSEVQSSWAETTYWISPQGIPETKVQDMDCVYYNWQYLLCSWKPGIGVLLDTNYNLFYWYEGLDHALQCVDYIKADGQNIGCRFPYLEASDYKDFYICVNGSSENKPIRSSYFTFQLQNIVKPLPPVYLTFTRESSCEIKLKWSIPLGPIPARCFDYEIEIREDDTTLVTATVENETYTLKTTNETRQLCFVVRSKVNIYCSDDGIWSEWSDKQCWEGEDLSKKTLLR
notes: Coated on the plate and also titrated in solution as positive control compound

- IC50 (human IL-13 [29]): 1.7 nM
- IC50, IL-13-induced TF-1 proliferation assay (human IL-13 [30]): 27 nM
- Kd (hIL13-Fc [31]): 1100 nM
- koff (hIL13-Fc [31]): 0.024 s⁻¹
- kon (hIL13-Fc [31]): 22000 M⁻¹ s⁻¹
- Kd (cyno IL13-Fc [32]): 1900 nM
- koff (cyno IL13-Fc [32]): 0.034 s⁻¹
- kon (cyno IL13-Fc [32]): 18000 M⁻¹ s⁻¹
- Kd (hIL13-Fc [33]): 1100 nM
- koff (hIL13-Fc [33]): 0.024 s⁻¹
- kon (hIL13-Fc [33]): 22000 M⁻¹ s⁻¹
- IC50 (hIL13-Fc [34]): 49 nM
- IC50 (human IL-13 [35]): 4 nM
- koff (hIL13-Fc [36]): 0.0017 s⁻¹
- koff (cyno IL13-Fc [37]): 0.0011 s⁻¹
B4: F0107004B02 (VHH)
VHH: EVQLVESGGGLVQAGGSLRLSCAASGRTFSSYRMGWFRQAPGKEREFVAALSGDGYSTYTANSVNSRFTISRDNAKNTVYLQMNSLKPEDTAIYYCAAKLQYVSGWSYDYPYWGQGTLVTVSS
notes: Wild-type anti-IL-13 ISVD; also called F010704B02; F107004B02; not shown: c-myc, His6 tag of the purified protein

Second part, the binder before the results:

B2: F0107529F10 (VHH)
VHH: EVQLVESGGGLVQAGGSLRLSCAASGFTFADYDYDIGWFRQAPGKEREGVSCISNRDGSTYYTDSVKGRFTISSDNAKNTVSLQMNSLKPEDTAVYYCAVEIHCDDYGVENFDFDPWGQGTLVTVSS
notes: Wild-type anti-TSLP ISVD; also called F107529F10; not shown: c-myc, His6 tag of the purified protein
- Kd (cyno TSLP-Fc [2]): 1.7 nM
- koff (cyno TSLP-Fc [2]): 0.0015 s⁻¹
- kon (cyno TSLP-Fc [2]): 870000 M⁻¹ s⁻¹
- Kd (hTSLP-Fc [3]): 0.035 nM
- koff (hTSLP-Fc [3]): 0.00042 s⁻¹
- kon (hTSLP-Fc [3]): 1.2e+07 M⁻¹ s⁻¹
- IC50 (human TSLP [4]): 0.18 nM
- Kd (hTSLP-Fc [5]): 0.035 nM
- koff (cyno TSLP-Fc [6]): 0.0018 s⁻¹
- koff (hTSLP-Fc [7]): < 5e-05 s⁻¹
- Kd (cyno TSLP-Fc [8]): 1.7 nM
- IC50 (human TSLP [9]): 0.013 nM
- koff (cyno TSLP [10]): 0.0018 s⁻¹
- koff (human TSLP [11]): 6.6e-05 s⁻¹

B3: F027400161 (other)
chain: DVQLVESGGGVVQPGGSLRLSCAASGRTFSSYRMGWFRQAPGKEREFVAALSGDGYSTYTANSVKGRFTISRDNSKNTVYLQMNSLRPEDTALYYCAAKLQYVSGWSYDYPYWGQGTLVTVSSGGGGSGGGGSGGGGSGGGGSGGGGSGGGGSGGGGSEVQLVESGGGVVQPGGSLRLSCAASGFTFNNYAMKWVRQAPGKGLEWVSSITTGGGSTDYADSVKGRFTISRDNSKNTLYLQMNSLRPEDTALYYCANVPFGYYSEHFSGLSFDYRGQGTLVTVSSGGGGSGGGSEVQLVESGGGVVQPGGSLRLSCAASGSGFGVNILYWYRQAAGIERELIASITSGGITNYVDSVKGRFTISRDNSENTMYLQMNSLRAEDTGLYYCASRNIFDGTTEWGQGTLVTVSSGGGGSGGGSEVQLVESGGGVVQPGGSLRLSCAASGFTFRSFGMSWVRQAPGKGPEWVSSISGSGSDTLYADSVKGRFTISRDNSKNTLYLQMNSLRPEDTALYYCTIGGSLSRSSQGTLVTVSSGGGGSGGGSEVQLVESGGGVVQPGGSLRLSCAASGFTFADYDYDIGWFRQAPGKEREGVSCISNRDGSTYYADSVKGRFTISRDNSKNTVYLQMNSLRPEDTALYYCAVEIHCDDYGVENFDFDPWGQGTLVTVSSA
notes: Pentavalent trispecific ISVD construct (two anti-IL-13 VHHs, two anti-TSLP VHHs, one anti-albumin VHH), Pichia pastoris, purified by Protein A; also called F027100161
- IC50, SEAP reporter assay (HEK-Blue IL-4/IL-13 cells) (human IL-13 [12]): 0.0328 nM
- IC50, SEAP reporter assay (HEK-Blue IL-4/IL-13 cells) (cyno IL-13 [13]): 0.0534 nM
- eotaxin release assay (IC50, pM) (human IL-13 [14]): 194 pM
- eotaxin release assay (IC50, pM) (cyno IL-13 [15]): 1040 pM
- eotaxin release assay (IC50, pM) (rhesus IL-13 [16]): 713 pM
- mean IC50, TSLP-induced CCL17 production in human DCs (human TSLP [17]): 0.0533 nM
- BaF3 proliferation assay (IC50, pM) (cyno TSLP [18]): 24 pM
- BaF3 proliferation assay (IC50, pM) (human TSLP [19]): 7.8 pM
- binding result (human IL4): no binding (tested: 1 µM)
- binding result (human IL7): no binding (tested: 1 µM)
- Kd (human IL-13 [20]): 0.0042 nM and 0.0063 nM
- Kd (cyno IL-13 [21]): 0.0038 nM and 0.0015 nM
- Kd (cyno TSLP [22]): 0.0559 nM and 0.044 nM
- Kd (human TSLP [23]): 0.0018 nM and 0.0023 nM
- binding result (short form of TSLP): no binding (tested: 500 nM)
- Kd (human IL-13 [24]): 0.0047 nM
- Kd (cyno IL-13 [25]): 0.0035 nM
- Kd (cyno TSLP [26]): 0.059 nM
- Kd (rhesus IL-13 [27]): 0.0015 nM
- Kd (human TSLP [28]): 0.001 nM
- Kd (cyno serum albumin): 0.198 nM and 0.133 nM and 0.145 nM
- Kd (human serum albumin): 0.119 nM and 0.11 nM and 0.145 nM
- Kd (mouse serum albumin): 1.8 nM

Reference: patent publication US20220177564A1 (Ablynx, published 2022)
